For experiment [1], the target named is T1, BKV serotype I (ST1) virus-like particles (VLPs) (BK virus serotype I, UniProt P03088 1-362).
T1 construct: VLP made by expressing VP1 in Sf9 insect cells and composed of 72 VP1 pentamers; also called BKV ST1 VLP; BKV ST1
T1 chain: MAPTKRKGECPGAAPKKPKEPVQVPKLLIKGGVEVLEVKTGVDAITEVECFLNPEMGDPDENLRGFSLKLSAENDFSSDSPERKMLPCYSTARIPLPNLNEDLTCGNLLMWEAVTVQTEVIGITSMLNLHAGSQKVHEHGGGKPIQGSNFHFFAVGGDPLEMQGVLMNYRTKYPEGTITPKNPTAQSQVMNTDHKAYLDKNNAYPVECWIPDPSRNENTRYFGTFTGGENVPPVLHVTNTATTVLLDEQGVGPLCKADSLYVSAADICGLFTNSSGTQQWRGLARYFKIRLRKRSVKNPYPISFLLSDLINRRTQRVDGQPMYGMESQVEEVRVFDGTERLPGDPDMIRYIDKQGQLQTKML
Briefly: solution equilibration titration (SET), antibody 1 pM, BKV VLPs in solution, MSD read-out.

Experiment [2] addresses T2, BKV serotype IV (ST4) virus-like particles (VLPs) (BK virus serotype IV, UniProt P14996 1-362).
T2 construct: VLP made by expressing VP1 in Sf9 insect cells and composed of 72 VP1 pentamers; also called BKV ST4 VLP; BKV ST4
Briefly: solution equilibration titration (SET) with BKV VLPs.

For experiment [3], the target named is T2, BKV serotype IV (ST4) virus-like …. Briefly: ELISA on plates coated with BKV ST1 or ST4 VLPs (100 ng/well).
Protocol: The binding of antibodies to VLPs were analyzed by ELISA. Briefly, Nunc MaxiSorp 384-well plates (Thermo Scientific) were coated with 100 ng/well BKV VLPs to BK serotype I (ST1) or serotype IV (ST4) overnight. Antibodies were serially diluted in PBS with 0.5% BSA and allowed to bind antigen-coated plates for 2 hours. […] Plates were washed with PBS and tetramethylbenzidine (TMB) microwell peroxidase substrate (SeramunBlau Fast, Seramun, Germany) was used to develop the reactions.
In a further experiment the target is JC virus (JCV) (JC virus, UniProt P03089 1-354). Briefly: cell-based or functional assay.

B1: NOV581 (antibody, V domains shown)
VH: QVQLVESGGGLVQPGGSLRLSCVASGFTFSGYNMHWVRQAPGKGLEWVSYISNSGRTIYYADSVKGRFTLSRDNAKNSLYLQMNSLRAEDTAVYFCARDRDPQWLGNDALQIWGQGTMVTVSS
VL: EIVLTQSPGTLSLSPGERATLSCRASQSVSSGYLAWYQQKPGQAPRLLIYGASSRATGIPDRFSGSGSGTDFTLTISRLEPEDFAVYYCQQYGTSRKTFGQGTKVEIKR
notes: also called antibody NOV581; clone NOV581
Turning to B1, in experiment [1], the Kd is < 0.05 nM. Besides, the binding result in experiment [2] was “no binding”.

B2: NOV638 (antibody, V domains shown)
VH: QVQLVQSGAEVKKPGASVKVSCKASGYTFTSYDIIWVRQATGQGLEWMGRMNPTGGNTDYVPKFQGRVTMTRDISLSTAYMELRSLTSEDTAVFYCARGVKSLGVSEIDYWGQGTLVTVSS
VL: QSALTQPPSVSAAPGQKVTISCSGSTSNIANNYVLWYQQLPGTAPKLLIYDNNKRPSGIPDRFSGSKSGTSATLGITGLQTADEADYYCGTWDNSLSVGVFGGGTKLTVLG
notes: also called antibody NOV638
B2: in experiment [3], the binding result is recorded as “no binding”.

B3: NOV530 (antibody, V domains shown)
VH: QVQLQESGPGLVKPSQTLSLTCTVSGGSISGGGYYWSWIRQHPGKGLEFIGYIYYNRGTYYNPALKSRLTISVDTSKNDFSLKLSSVSAADTAVYYCARCVLGGYGSDAFDRWGQGTTVTVAS
VL: EIVLTQSPVTLSLSPGERAILSCRASQSVSSHLAWYQQKPGQAPRLLIYDASSRANGIPARFSGSGSGTDFTLTISSLAPEDFAVYYCQQRSSWPPSLTFGGGTKVEIRR
notes: also called antibody NOV530; cross-neutralizing IgG NOV530
Turning to B3, the “EC50 of virus neutralization” value in the experiment with JC virus (JCV) was < 1 nM. Moreover, the Kd in experiment [1] was < 0.05 nM.

The values are drawn from patent US20200384109A1 (Novartis, published 2020).
